Data reported in patent US20230322908A1 (AC IMMUNE, published 2023).

Experiments:
[1] = target: T1, recombinant human full-length TDP-43 (TAR DNA-binding protein 43), soluble (human, UniProt Q13148 1-414); assay: SPR, mAb captured, FL TDP-43 injected; mean
T1 construct: Used on Luminex beads, coated on ELISA plates, and immobilized or injected in SPR; also called FL TDP-43; TDP-43 protein
Method: Binding affinity to soluble FL TDP-43 was evaluated by determing the dissociation constants (KD) using surface plasmon resonance (SPR; Biacore T200, GE Healthcare Life Sciences). Goat-anti mouse capture antibody was immobilized on a CM5 Series S sensor chip (GE Healthcare Life Sciences) by amine coupling. Antibodies were captured at a concentration of 2-5 µg/ml in PBS-P⁺ (GE Healthcare Life Sciences) with a flow rate of 10 µl/min for 120 seconds resulting in a capture level of 350-1000 RU. […] Dissociation was recorded for 1 h followed by one regeneration with 10 mM glycine-HCl pH 1.7. Results obtained from binding kinetics were double-referenced using a blank flow cell and a buffer cycle and were evaluated with a global 1:1 fitting model with RI.

[2] = target: T1, recombinant human full-length TDP-43 …; assay: SPR, immobilized soluble TDP-43; whole hybridoma antibody, first SPR protocol (90 s contact); soluble TDP-43 on the chip
[3] = target: T2, recombinant human aggregated full-length TDP-43 (human, UniProt Q13148 1-414); assay: SPR, immobilized aggregated TDP-43
T2 construct: also called aggregated TDP-43; aggregated FL TDP-43
Summary of the method: (§1)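 Biacore SPR with soluble (150 RU) or aggregated (110 RU) full-length TDP-43 amine-coupled to CM5, or biotinylated TP-73 peptide captured on SA chip (400 RU). Antibodies injected (optimized: 3-fold series 300 to 1.2 nM, 300 s association, 600 s dissociation); glycine pH 1.7 regeneration; double-referenced, KD from global 1:1 fit.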

[4] = target: T1, recombinant human full-length TDP-43 …; assay: Luminex, FL TDP-43 on beads
Method: Mice were euthanized and fusion with myeloma cells was performed using splenocytes from four individual mice. Screening for antibodies from the successfully fused hybridoma cell lines were performed as follows. Diluted (1:32) cell culture supernatants were analyzed using Luminex bead-based multiplex assay (Luminex, The Netherlands). Luminex beads were conjugated to FL TDP-43 and with capturing IgGs with anti-mouse IgG-Fc antibodies specific for the IgG1, IgG2a, IgG2b, IgG2c, and IgG3 subclasses (Jackson Immunoresearch, USA). Binding to beads conjugated to FL TDP-43 identified 386 hits derived from mice immunized with the FL TDP-43 liposomal vaccine.
Luminex assays with serial dilution of antibodies were performed as described before to determine half maximal effective concentration (EC50) of binding of antibodies to FL TDP-43. In summary, all tested antibodies bind to full length TDP-43 with high affinity.

[5] = target: T1, recombinant human full-length TDP-43 …; assay: indirect ELISA, coated FL TDP-43
Method: Antibody binding to human FL TDP-43 was determined using an indirect ELISA. ELISA plate coating with 1 µg/ml human FL TDP-43 was performed overnight in carbonate buffer at 4° C. Plates were washed with 0.05% Tween-20/PBS and then blocked with 1% bovine serum albumin (BSA) in 0.05% Tween-20/PBS for 1 hour at 37° C. Antibodies purified from hybridoma supernatants were then added in a 3-fold serial dilution starting at 1 µg/ml, and incubated for 2 hours at 37° C. after which the plates were washed. An AP-conjugated anti-mouse IgG secondary antibody (Jackson Immunoresearch Laboratories, United Kingdom) was added at 1/1000 dilution in 0.05% Tween-20/PBS for 1 hour at 37° C. After the final wash, plates were incubated with pNPP (Sigma-Aldrich, Switzerland) phosphatase substrate solution, and read at 405 nm using an ELISA plate reader (Tecan, Switzerland).

[6] = target: T3, TP-51 peptide (aa 352-414 of SEQ ID NO:1) (human); assay: SPR, mAb captured, TP-51 injected
T3 construct: Synthetic peptide (Pepscan)
T3 peptide: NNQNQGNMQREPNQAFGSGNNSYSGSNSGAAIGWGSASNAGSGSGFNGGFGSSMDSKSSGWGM

[7] = target: T3, TP-51 peptide (aa 352-414 of SEQ ID …); assay: SPR, mAb captured, TP-51 injected; mean
[8] = target: T1, recombinant human full-length TDP-43 …; assay: SPR, immobilized soluble TDP-43
Summary of the method: as §1

- Kd [1]: 0.075 nM
- koff [1]: 3.45e-06 s⁻¹
- kon [1]: 43900 M⁻¹ s⁻¹
- Kd [2]: 365 nM
- Kd [3]: 0.62 nM
- koff [3]: 5.01e-05 s⁻¹
- kon [3]: 82100 M⁻¹ s⁻¹
- EC50 [4]: < 0.01 nM
- EC50 [5]: 0.032 µg/mL
- Kd [6]: 1.18 to 1.32 nM
- Kd [7]: 1.25 nM
- koff [7]: 0.000138 s⁻¹
- kon [7]: 110000 M⁻¹ s⁻¹
- koff [8]: 0.000319 s⁻¹
- kon [8]: 873 M⁻¹ s⁻¹
B1: ACI-7069-633B12-Ab1 (antibody, mouse IgG2b, V domains shown)
VH: EVQLQQSGPELVKPGASVKISCKTSGFTFTEYSMHWVKQSHGKSLEWIGGINPNNGGTSYNQKFKGKATLTVDKSSSTAYMELRSLTSEDSAVYYCARESWGQGTTLTVSS
VL: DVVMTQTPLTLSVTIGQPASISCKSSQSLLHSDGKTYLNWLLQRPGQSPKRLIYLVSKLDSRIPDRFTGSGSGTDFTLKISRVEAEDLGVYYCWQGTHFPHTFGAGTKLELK
notes: Mouse IgG2b, kappa, from hybridoma; also called 633B12C8
